Assay [1] addresses SNX27_PDZ. The assay is described as follows: nHU-MS, SNX27_PDZ bait, total SH-SY5Y extracts. The format is binding, human. How it is done: The empty His6-AviTag-MBP-TEV vector was used to produce biotinylated MBP for control experiments. Proteins were coexpressed with BirA biotin ligase (PET21a-BirA, Addgene, no. 20857) in Escherichia coli BL21(DE3) cells. At isopropyl-β-D-thiogalactopyranoside (IPTG) induction (1 mM IPTG at 18°C overnight), 50 μM biotin was added to the media. Harvested cells were lysed in a buffer containing 50 mM tris (pH 7.5), 150 to 300 mM NaCl, 50 μM biotin, 2 mM β-mercaptoethanol, cOmplete EDTA-free protease inhibitor cocktail (Roche, Basel, Switzerland), 1% Triton X-100, and trace amount of deoxyribonuclease, ribonuclease, and lysozyme. Lysates were frozen at −20°C before further purification steps. Lysates were sonicated and centrifuged for clarification. Expressed proteins were captured on in-house prepacked Ni-IDA (Protino Ni-IDA Resin, Macherey-Nagel, Duren, Germany) columns and were washed with at least 10 column volumes of cold wash buffer [50 mM tris (pH 7.5), 150 mM NaCl, and 2 mM β-mercaptoethanol] before elution with 250 mM imidazole. The Ni elution was collected directly on a preequilibrated amylose column (amylose high flow resin, New England Biolabs, Ipswich, MA). Amylose column was washed with 5 column volumes of cold wash buffer before fractionated elution in a buffer containing 25 mM Hepes (pH 7.5), 150 mM NaCl, 1 mM TCEP, 10% glycerol, 5 mM maltose, and cOmplete EDTA-free protease inhibitor cocktail. The concentration of proteins was determined by their ultraviolet absorption at 280 nm before aliquots were snap-frozen in liquid nitrogen and stored at −80°C.
For saturating streptavidin resin with biotinylated peptides or biotin, 50 μl of streptavidin resin was mixed with biotin or peptide at 40 to 60 μM concentration in 6 to 6.5 resin volume for 60 min. To saturate streptavidin resin with biotinylated proteins, 50 μl of streptavidin resin (Streptavidin Sepharose High Performance, Cytiva) was mixed with biotinylated MBP or MBP-PDZ at 40 to 50 μM concentration in 20× resin volume for 60 min. After saturation, resins were washed a single time [10 resin volume, holdup buffer: 50 mM tris (pH 7.5), 300 mM NaCl, and 1 mM TCEP, 0.22-μm filtered] and were depleted with biotin (10 resin volume, 10 min, holdup buffer supplemented with 100 μM biotin). Last, resins were washed two times (10 resin volume, holdup buffer).
For single-point nHU experiments carried out at ~10 μM bait concentration, 50 μl of saturated streptavidin resin was mixed with 200 μl of cell lysate (2 mg/ml). Titration experiments were carried out by mixing control and bait-saturated resin and keeping the total resin volume constant; e.g., ~5 μM bait concentration can be achieved by mixing 25 μl of bait-saturated streptavidin resin with 25 μl of control resin and 200 μl of cell lysate (2 mg/ml). Control and bait-saturated resins were prepared in larger amounts, and a serial dilution was prepared with these presaturated resins to achieve different resin ratios.
Unless specified elswhere, the nHU mixture was incubated at 4°C for 2 hours. After the incubation ended, the resin was separated from the supernatant by a brief centrifugation (15 s, 2000 g). Then, half of the supernatant was removed by pipetting without any delay to avoid any resin contamination; e.g., 100 μl of supernatant is collected if 200 μl of cell lysate was used as analyte. Alternatively, the supernatant can be centrifuged an additional time to clarify it further, removing any possible resin contamination. […]

The subject of assay [2] is SNX27_PDZ. Briefly: AP-MS control pull-down on leftover resin, SNX27_PDZ bait, total SH-SY5Y extracts. The format is binding, human. The conditions noted are these: n = 6. How it is done:
Leftover beads from nHU-MS experiments were washed three times immediately after the separation of the supernatant [10 resin volume in buffer containing 50 mM tris (pH 8.5), 150 mM NaCl, 1% Triton X-100, 10× cOmplete EDTA-free protease inhibitor cocktail, 2 mM EDTA, and 1 mM TCEP]. Then, the beads were washed two times [10 resin volume buffer containing 50 mM tris (pH 8.5), 150 mM NaCl, and 1 mM TCEP]. Last, captured protein was eluted from the resin in two steps, and the eluted fractions were pooled. For each elution, the beads were incubated for 30 min with three resin volume buffer containing 20 mM tris (pH 8.5), 100 mM NaCl, 500 μM TCEP, and 8 M urea. Between each step, the beads were separated by mild centrifugation, and the supernatant was removed by gentle pipetting.
The nHU samples were precipitated with trichloroacetic acid (TCA) 20% overnight at 4°C and centrifuged at 14,000 rpm for 10 min at 4°C. The protein pellets were washed twice with 1 ml of cold acetone and air-dried. […]
Samples were analyzed using an Ultimate 3000 nano-RSLC coupled in line via a nano-electrospray ionization source, with an LTQ-Orbitrap ELITE mass spectrometer (Thermo Fisher Scientific, San Jose, CA) or with the Orbitrap Exploris 480 mass spectrometer (Thermo Fisher Scientific, Bremen, Germany) equipped with a high field asymmetric ion mobility spectrometry (FAIMS) module. […]

The test system of a further assay is full-length SNX27. The assay is described as follows: nHU-WB titration, full-length SNX27 bait, total Jurkat extracts. The format is binding. The note with it: partial activity model (Eq. 4). As to the method: The empty His6-AviTag-MBP-TEV vector was used to produce biotinylated MBP for control experiments. Proteins were coexpressed with BirA biotin ligase (PET21a-BirA, Addgene, no. 20857) in Escherichia coli BL21(DE3) cells. At isopropyl-β-D-thiogalactopyranoside (IPTG) induction (1 mM IPTG at 18°C overnight), 50 μM biotin was added to the media. […] Lysates were frozen at -20°C before further purification steps. Lysates were sonicated and centrifuged for clarification. Expressed proteins were captured on in-house prepacked Ni-IDA (Protino Ni-IDA Resin, Macherey-Nagel, Duren, Germany) columns and were washed with at least 10 column volumes of cold wash buffer [50 mM tris (pH 7.5), 150 mM NaCl, and 2 mM β-mercaptoethanol] before elution with 250 mM imidazole. The Ni elution was collected directly on a preequilibrated amylose column (amylose high flow resin, New England Biolabs, Ipswich, MA). […] The concentration of proteins was determined by their ultraviolet absorption at 280 nm before aliquots were snap-frozen in liquid nitrogen and stored at -80°C. […] To saturate streptavidin resin with biotinylated proteins, 50 μl of streptavidin resin (Streptavidin Sepharose High Performance, Cytiva) was mixed with biotinylated MBP or MBP-PDZ at 40 to 50 μM concentration in 20× resin volume for 60 min. […] Last, resins were washed two times (10 resin volume, holdup buffer). […]

B1: CNBP: Cellular nucleic acid-binding protein (protein, UniProt P62633 2-177, looked up)
CCHC-type zinc finger nucleic …: SSNECFKCGRSGHWARECPTGGGRGRGMRSRGRGGFTSDRGFQFVSSSLPDICYRCGESGHLAKDCDLQEDACYNCGRGGHIAKDCKEPKREREQCCYNCGKPGHLARDCDHADEQKCYSCGEFGHIQKDCTKVKCYRCGETGHVAINCSKTSEVNCYRCGESGHLARECTIEATA
B1: the pKapp_HU_not_filtered on SNX27_PDZ [1] (apparent, Eq. 2, not filtered for significance) is 4.74. The pKapp_significant_binders_HU on SNX27_PDZ [1] (apparent, Eq. 2, significant binders (1 σ, P < 0.05)) came to 4.74. Further, in the assay on SNX27_PDZ [1] (n = 6), the BI_HU amounted to 0.3538, the “FC_HU (log2 fold change)” value was -0.63 and the Ratio_HU was 0.6462. In the assay on SNX27_PDZ [2], the “FC_AP (log2 fold change)” value was -0.3792 and the Ratio_AP is on record as 0.7689.

B2: full-length SLC16A1: monocarboxylate transporter 1, endogenous full-length prey (protein, UniProt P53985 1-500, looked up)
chain: MPPAVGGPVGYTPPDGGWGWAVVIGAFISIGFSYAFPKSITVFFKEIEGIFHATTSEVSWISSIMLAVMYGGGPISSILVNKYGSRIVMIVGGCLSGCGLIAASFCNTVQQLYVCIGVIGGLGLAFNLNPALTMIGKYFYKRRPLANGLAMAGSPVFLCTLAPLNQVFFGIFGWRGSFLILGGLLLNCCVAGALMRPIGPKPTKAGKDKSKASLEKAGKSGVKKDLHDANTDLIGRHPKQEKRSVFQTINQFLDLTLFTHRGFLLYLSGNVIMFFGLFAPLVFLSSYGKSQHYSSEKSAFLLSILAFVDMVARPSMGLVANTKPIRPRIQYFFAASVVANGVCHMLAPLSTTYVGFCVYAGFFGFAFGWLSSVLFETLMDLVGPQRFSSAVGLVTIVECCPVLLGPPLLGRLNDMYGDYKYTYWACGVVLIISGIYLFIGMGINYRLLAKEQKANEQKKESKEEETSIDVAGKPNEVTKAAESPDQKDTDGGPKEEESPV
modifications: full-length
notes: monocarboxylate transporter 1, endogenous full-length prey
In the case of B2, the “f (active fraction)” value in the assay on full-length SNX27 is recorded as 0.9.

The values are drawn from article PMC9770967, “Native holdup (nHU) to measure binding affinities from cell extracts” (Science Advances, 2022).
